Data on one substance can be found in PMC4009068.

Test [1] addresses Atg19 (wild type full-length protein) (yeast) (UniProt P35193). As to the kind of experiment: ITC.
The next test deals with Atg19 C-terminus (yeast) (UniProt P35193). Put plainly: SEC.

Consider “Atg8 (from UniProt P38182 1-117) (natural protein)”, for which the Kd (commonly the equilibrium constant for the complex coming apart) in test [1] stood at 35 µM. Besides, the stoichiometry N (Atg8 molecules per 1 Atg19 C-terminus) with Atg19 C-terminus (yeast) turned out to be 4.14.
